In the test the target is SARS-CoV-2 S2 (T1076-Q1208) antigen, trimeric S2 fusion-core-based antigen (SARS-CoV-2 prototype (MN908947.3), UniProt P0DTC2, biotin (Biotinylation Kit)). Nature of the test: BLI. The note with it: both partners purified.

The record followed here is publication PMC12052392 (PLOS Pathogens, 2025).

B1: anti-SH neutralizing antibody CV3-25 (antibody, V domains shown)
VH: EVQLVESGAEVKKPGESLKISCKGSGYTFTRYWIGWVRQMPGKGLEWMGIIYPGDSDTRYSPSFQGHVTISADKSISTAYLQWNSLKASDTAMYYCARLPQYCSNGVCQRWFDPWGQGTLVTVSS
VL: EIVLTQSPSSVSASVGDRVTITCRASQGISSWLAWYQQKPGKAPKLLIYAASSLQSGVPSRFSGSGSGTDFTLTISSLQPEDFATYYCQQGNSFPYTFGQGTNLEIK
Consider B1, for which the binding result is “binds”.
